Test results as given in the RNAGym collection of RNA variant scans (doi:10.7554/elife.90254).

B1: LINE1-full (parent)
chain: UACGUAGGUGGUUUUCCCCUGAUAGUGCUAAGGGGGCCUGGAAGUUUGGACUGGGCAGAGCUCAACACAGCGUGGCAAAGUGGCUGUGGCUAGACUGCCUCUCUGGAUUCCUCGUCACUCAGCAGGGCAUCUCUGAGAGAAAUGCC

Variants of: B1
Assay: self-cleavage, relative activity (ratio to wild type); higher = more cleavage; in vitro, sequencing; the parent is a self-cleaving ribozyme
In the case of G27A G36C, the self-cleavage is reported as 1.24. Variant A24U G126A has a self-cleavage of 1.34. With U13G A117C the self-cleavage was 0.65. In the case of G80C U109C, the self-cleavage is reported as 1.27. U15C C68U gave a self-cleavage of 0.19. For U9A G40A, the self-cleavage was 1. A6G C101A showed a self-cleavage of 0.56. A67U U73A gave a self-cleavage of 0.05. For U102A G125A, the self-cleavage was 1.51. For A57G A136G, the self-cleavage was 1.33. Variant A69U G82A has a self-cleavage of 0.14. C111U A121C gave a self-cleavage of 1.54. Work on G70A A136U yielded a self-cleavage of 0.16. Work on U46C G93U yielded a self-cleavage of 0.06. In the case of G74A A79G, the self-cleavage is reported as 0.8. G27U U52C gave a self-cleavage of 0.36. With A64G G105A the self-cleavage was 0.03. In the case of A136U A138U, the self-cleavage is reported as 0.99. Variant A50C A124G has a self-cleavage of 1.29. Work on U20A U29A yielded a self-cleavage of 1.05. U5C G80A gave a self-cleavage of 2.24. For G135A A138G, the self-cleavage was 1.82. In the case of U119A A142C, the self-cleavage is reported as 1.95. Variant G139U A140G has a self-cleavage of 1.23. Work on U39C C63A yielded a self-cleavage of 0.05. With A43U U46C the self-cleavage was 1.23. A107G U132C gave a self-cleavage of 1.62. For A67U U108C, the self-cleavage was 0.29. U108A A138C showed a self-cleavage of 1.32. Variant U1C has a self-cleavage of 0.86. In the case of G32A A67U, the self-cleavage is reported as 0.09. Work on U87G A141G yielded a self-cleavage of 0. Variant A2C U73A has a self-cleavage of 1.29. For A78G A121U, the self-cleavage was 0.67. U9C G21U showed a self-cleavage of 1.37. With G27C G54U the self-cleavage was 0.17. Work on U96C U109A yielded a self-cleavage of 0.15. U87A G88C gave a self-cleavage of 0.08. U14C U29G gave a self-cleavage of 0.26. C90G U102C gave a self-cleavage of 0.01. Work on U12C A24C yielded a self-cleavage of 1.61. U26A A77C gave a self-cleavage of 0. Work on C71A A138G yielded a self-cleavage of 0.33. Variant A2U A142G has a self-cleavage of 1.15. With C28A A57G the self-cleavage was 1.53. For U62A C110U, the self-cleavage was 0.08. With U39C A140G the self-cleavage was 1.3. For A59G C61G, the self-cleavage was 0. For U15A U81A, the self-cleavage was 1.56. Variant U81G U115A has a self-cleavage of 1.28. Work on G21U U91C yielded a self-cleavage of 0.45. With A67U U100C the self-cleavage was 0.27. In the case of U104G U130A, the self-cleavage is reported as 0. In the case of U1C G4U, the self-cleavage is reported as 0.78. Variant A59G C76A has a self-cleavage of 0.08. A30G U39A showed a self-cleavage of 0.98. With A59G C110U the self-cleavage was 0.1. With A57U A79G the self-cleavage was 0.06. For A42G G139A, the self-cleavage was 1.28. Work on U14A G137A yielded a self-cleavage of 0.77. For U13C U15A, the self-cleavage was 0.79. Work on A24G U134C yielded a self-cleavage of 1.26. U39C U45G gave a self-cleavage of 1.17. With U47C U143A the self-cleavage was 1.63. In the case of U14C A124U, the self-cleavage is reported as 1.25. With U23C U108A the self-cleavage was 1.33. Variant C37U U115C has a self-cleavage of 1.67. Work on A94G U119A yielded a self-cleavage of 0.39. In the case of A6C, the self-cleavage is reported as 1.08. For A64G A92G, the self-cleavage was 0.14. Variant A129C U130C has a self-cleavage of 1.02. For U85A A124U, the self-cleavage was 0.08. A77U A140U gave a self-cleavage of 1.23. U62A A138U showed a self-cleavage of 0.06. Work on U9A U62C yielded a self-cleavage of 0.09. With G125A A140U the self-cleavage was 0.61. With U14G U81A the self-cleavage was 1.91. In the case of A42U U119A, the self-cleavage is reported as 0.98. In the case of A2G U62G, the self-cleavage is reported as 0.37. In the case of A57G A65C, the self-cleavage is reported as 0.05. For U62C G137A, the self-cleavage was 0.17. C19U U73A showed a self-cleavage of 1.15. A67G G86A gave a self-cleavage of 0.05. A6G A92U gave a self-cleavage of 1.23. In the case of A78G G114A, the self-cleavage is reported as 0.83. With U23C G83A the self-cleavage was 1.02. Variant A22U U91A has a self-cleavage of 0.3. Work on A107G U112C yielded a self-cleavage of 1.68. Variant G139U has a self-cleavage of 1.31. Variant A22G G122C has a self-cleavage of 1.31. In the case of A107G A141G, the self-cleavage is reported as 1.64. Work on A57G G86A yielded a self-cleavage of 0.05. C18U A30U gave a self-cleavage of 0.14. Variant U81A A94G has a self-cleavage of 0.37. Work on A79U C116A yielded a self-cleavage of 1.49. In the case of U115C C128U, the self-cleavage is reported as 1.4. With U26G U81C the self-cleavage was 0.58. U9A A124G showed a self-cleavage of 1.02. With G60A A92G the self-cleavage was 0.03. U62A U85A gave a self-cleavage of 0.02. Work on U1C U26A yielded a self-cleavage of 0.53. C18U A77U showed a self-cleavage of 1.11. In the case of G11A G139A, the self-cleavage is reported as 1.91. G40U A124G gave a self-cleavage of 0.87. In the case of U46C G139A, the self-cleavage is reported as 1.23. U109A A136G showed a self-cleavage of 1.4. A124C G137U gave a self-cleavage of 0.75. Work on G36C G55A yielded a self-cleavage of 0.13. With G55A U96A the self-cleavage was 0.05. A79U G86A showed a self-cleavage of 0.07. A69C G83A gave a self-cleavage of 0.02. With A57U C128U the self-cleavage was 0.11. A92G U130C showed a self-cleavage of 0.11. Work on C61U A77U yielded a self-cleavage of 0.03. With U9A U134A the self-cleavage was 1.17. G10A U96C gave a self-cleavage of 0.16. For A77C A124G, the self-cleavage was 0.32. In the case of U1A U87C, the self-cleavage is reported as 0.5. In the case of A78G C146U, the self-cleavage is reported as 1.06. A77G A141G gave a self-cleavage of 2.25. For U96C C101U, the self-cleavage was 0.06. With C37U A140G the self-cleavage was 0.26. Work on U12C A50G yielded a self-cleavage of 1.15. Work on A57G C128G yielded a self-cleavage of 0.55. U46A U143A gave a self-cleavage of 1.38. With G70A A141G the self-cleavage was 0.17. In the case of U20C U109C, the self-cleavage is reported as 1.34. A69G U108C showed a self-cleavage of 0.68. Variant C71U G75A has a self-cleavage of 0.59. Work on A31U A129G yielded a self-cleavage of 1.25. Variant G21U U62A has a self-cleavage of 0.02. A24G C37A gave a self-cleavage of 1.07. In the case of G36A A94G, the self-cleavage is reported as 0.34. Work on U108C G114A yielded a self-cleavage of 1.71. Variant C19A A50G has a self-cleavage of 1.48. A42G U96C gave a self-cleavage of 0.12. U46C A65U showed a self-cleavage of 0.24. For U26A A107G, the self-cleavage was 1.06. C61U U112G showed a self-cleavage of 0.04. For A42G A67U, the self-cleavage was 0.17. Work on G82A A136G yielded a self-cleavage of 2.28. A43G A50G gave a self-cleavage of 1.24. A67G A79G gave a self-cleavage of 0.5. For U81C A140U, the self-cleavage was 1.9. Variant C61U G82A has a self-cleavage of 0.02. C37U U85C gave a self-cleavage of 0.19. In the case of C113A A140G, the self-cleavage is reported as 1.06. In the case of A22U A138C, the self-cleavage is reported as 0.92. For G32A A94G, the self-cleavage was 0.36. In the case of G7A A79G, the self-cleavage is reported as 0.61. For U13G C113A, the self-cleavage was 1.43. In the case of A64U U109A, the self-cleavage is reported as 0.49. In the case of U26A U52C, the self-cleavage is reported as 0.8. Variant G8A G125U has a self-cleavage of 1.53. U47A A78G gave a self-cleavage of 0.29. For A22U U104A, the self-cleavage was 1.01. Variant U9A C123U has a self-cleavage of 1.11. For A43U, the self-cleavage was 1.26. Work on U85C U112C yielded a self-cleavage of 0.18. C84U A141G showed a self-cleavage of 0.14. For A43G G93U, the self-cleavage was 0.05. A6G U96A showed a self-cleavage of 0.2. C99A A107G gave a self-cleavage of 0.61. In the case of U13G C145U, the self-cleavage is reported as 1.16. C116U gave a self-cleavage of 1.29. With G34U U109C the self-cleavage was 1.52. A59U U130A gave a self-cleavage of 0.74.
